Tests used:
[1] = biological target: Variant II: V240P+Q241P (Humicola insolens)
[2] = biological target: Variant I: V221S+N222S+Q223T (Humicola insolens)
[3] = biological target: Humicola insolens 43 kD endoglucanase (Humicola insolens)

Savinase® protease (from UniProt P29600) (enzyme)
Residual Activity, % DAA (25° C., 5d) after storage in liquid detergent with Savinase protease [1]: 81% | Residual Activity, % DAA (25° C., 5d) after storage in liquid detergent with Savinase protease [2]: 83% | Residual Activity, % DAA (25° C., 5d) after storage in liquid detergent with Savinase protease [3]: 63%

— patent US5792641
